Source: US6284729A, “Methods and reagents for regulating obesity” (Children's Medical Center Corporation, priority 1998, dated 2001)

T1: syndecan-1 ectodomain (Mus musculus, UniProt P18828)
T1 sequence (P18828 23-255 limits assumed): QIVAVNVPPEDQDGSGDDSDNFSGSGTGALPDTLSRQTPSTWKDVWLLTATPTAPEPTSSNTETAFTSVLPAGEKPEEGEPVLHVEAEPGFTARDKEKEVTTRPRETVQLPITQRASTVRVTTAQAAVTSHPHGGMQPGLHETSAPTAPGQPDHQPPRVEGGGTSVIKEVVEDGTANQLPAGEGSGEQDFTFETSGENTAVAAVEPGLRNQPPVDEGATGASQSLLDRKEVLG


Columns and labels:
syndecan-1 ectodomain = molecular target: T1, syndecan-1 ectodomain; experiment: Binding of radioactive syndecan-1 ectodomain to neuropeptides immobilized on nitrocellulose membrane (autoradiography); details: peptides immobilized on nitrocellulose, UV cross-linked
Method: Binding of syndecan-1 ectodomain to neuropeptides involved in body weight regulation was tested. Varying concentrations of the peptides were immobilized on a nitrocellulose membrane (for example, 1000 nmol) and fixed by UV cross-linking. The membrane was incubated with radioactive syndecan-1 ectodomain to allow binding and then washed and analyzed by autoradiography.

melanocortin-4 receptor = experiment: MC4-R adenylyl cyclase assay (conversion of ATP to cAMP) in membranes from 293 cells transfected with the melanocortin-4 receptor, with ndp-MSH; assay type: biochemical; details: for potentiation of MC4-R inhibition by AGRP (formation of cAMP from ATP): membranes preincubated with substance plus AGRP, FIGS. 1a and 1b
Method: Based on the interaction of AGRP and syndecan-1, the putative interaction between agouti/AGRP and syndecaniheparan sulfate in a functional assay was tested. Membranes from 293 cells transfected with the melanocortin-4 receptor were preincubated with buffer or as indicated with AGRP, heparan sulfate, syndecan-1 ectodomain, heparan sulfate plus AGRP, and syndecan-1 ectodomain plus AGRP. Samples were then mixed with or without the indicated concentration of ndp-{character pullout}MSH and conversion of ATP to cAMP measured in the assay.

Mc4r = details: recombinant protein; cited from earlier work
Mc3r = details: recombinant protein; cited from earlier work

| interaction with syndecan-1 (binding of radioactive syndecan-1 ectodomain to immobilized peptide) (syndecan-1 ectodomain) | Molecule | potentiation of MC4-R inhibition by AGRP (formation of cAMP from ATP) (melanocortin-4 receptor) | further results |
| --- | --- | --- | --- |
| – | heparan sulfate [reference compound] | potentiates melanocortin-4R (MC4-R) inhibition by AGRP | potency of AGRP at inhibiting MC4-R activation in presence of the substance (melanocortin-4 receptor; 1 μg/ml heparan sulfate): 10 nM AGRP is as potent as 100 nM AGRP |
| interact with syndecan-1 | FGF-2: fibroblast growth factor-2, heparin-binding growth factor | – | – |
| interact with syndecan-1 | AGRP: Agouti-related protein, 132 aa hypothalamic analog of agouti; inhibitor of MC3-R and MC4-R (SSRRCVRLHESCLGQQVPCCDPCATCYCRFFNAFCYCRKLGTAMNPCSRT; UniProt O00253 83-132, looked up) | – | antagonism of Mc4r (Mc4r): potent, selective antagonist; antagonism of Mc3r (Mc3r): potent, selective antagonist |
| interact with syndecan-1 | agouti: 131 aa paracrine signaling molecule; switches hair follicle melanocytes from black to yellow pigment (protein, UniProt Q03288 23-131, looked up) Agouti-signaling protein: HLALEETLGDDRSLRSNSSMNSLDFSSVSIVALNKKSKKISRKEAEKRKRSSKKKASMKKVARPPPPSPCVATRDSCKPPAPACCDPCASCQCRFFGSACTCRVLNPNC | – | – |
| – | syndecan-1 ectodomain: soluble extracellular domain of syndecan-1, a transmembrane heparan sulfate proteoglycan (protein, UniProt P18827 23-254, looked up, extracellular domain, soluble extracellular domain of syndecan-1, a transmembrane heparan sulfate proteoglycan) extracellular domain: QIVATNLPPEDQDGSGDDSDNFSGSGAGALQDITLSQQTPSTWKDTQLLTAIPTSPEPTGLEATAASTSTLPAGEGPKEGEAVVLPEVEPGLTAREQEATPRPRETTQLPTTHLASTTTATTAQEPATSHPHRDMQPGHHETSTPAGPSQADLHTPHTEDGGPSATERAAEDGASSQLPAAEGSGEQDFTFETSGENTAVVAVEPDRRNQSPVDQGATGASQGLLDRKEVLG | potentiates melanocortin-4R (MC4-R) inhibition by AGRP | potency of AGRP at inhibiting MC4-R activation in presence of the substance (melanocortin-4 receptor; 1 ng/ml syndecan-1 ectodomain): 10 nM AGRP is as potent as 100 nM AGRP; potentiation of the action of agouti on the MC4-R (melanocortin-4 receptor; biochemical assay, agouti instead of AGRP): potentiates the action of agouti on the MC4-R; concentration dependence of potentiation of AGRP's action (melanocortin-4 receptor; low versus higher concentrations of syndecan-1 ectodomain): potentiation is less pronounced at higher concentrations |

| Molecule | interaction with syndecan-1 (binding of radioactive syndecan-1 ectodomain to immobilized peptide) (syndecan-1 ectodomain) | potentiation of MC4-R inhibition by AGRP (formation of cAMP from ATP) (melanocortin-4 receptor) | further results |
| --- | --- | --- | --- |
| NC(=O)CC[C@@H]1NC(=O)[C@H](Cc2ccccc2)NC(=O)[C@H](Cc2ccc(O)cc2)NC(=O)[C@@H](N)CSSC[C@@H](C(=O)N2CCC[C@H]2C(=O)N[C@@H](CCCN=C(N)N)C(=O)NCC(N)=O)NC(=O)[C@H](CC(N)=O)NC1=O [vasopressin, reference compound] | interact with syndecan-1 | – | – |
